Parameters: species or system Rats
Conditions: rat, in vivo, po, 1 mg/kg

For interferon, the “Mean peak serum interferon concentration” value was 1951±1857.

Source: US5876710A, “Compounds and compositions for delivering active agents” (Emisphere Technologies Inc., priority 1997, dated 1999)
